Laboratory results reported in US6946258B2, “Rapid, immunochemical process for measuring thiopurine methyltransferase” (Biologix Diagnostics, LLC, priority 2002, dated 2005).
Substitutions are numbered along the chain they refer to.

Key:
hTPMT enzyme [1] = target: T1, hTPMT enzyme (Homo sapiens, UniProt P51580, Y240C); test: ELISA immunoassay for TPMT using purified anti-6-MMP IgG; format: biochemical; settings: TPMT + 100 μM SAM, 37° C., 30 minutes
T1 construct: DNA fragment; first 13 codons of LacZ (vector-encoded leader of pGEM-3Zf(+)) (N); made in house; host or cells: E. coli JM109 (pTPMT)
T1 sequence (P51580 1-245 Y240C): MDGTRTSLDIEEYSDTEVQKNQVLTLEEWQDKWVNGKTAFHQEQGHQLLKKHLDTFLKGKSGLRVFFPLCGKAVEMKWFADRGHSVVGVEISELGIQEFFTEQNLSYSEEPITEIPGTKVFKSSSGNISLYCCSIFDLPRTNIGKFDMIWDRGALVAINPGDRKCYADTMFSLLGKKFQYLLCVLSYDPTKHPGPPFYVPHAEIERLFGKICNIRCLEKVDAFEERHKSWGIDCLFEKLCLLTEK
From the text: In order to determine whether TPMT enzyme could methylate 6-MP bound to BSA in reaction wells of a plastic ELISA plate, and if the anti-6-MMP antibody could detect the methylated 6-MMP reaction product, the following assay format was developed: [drawing 3] Schematic Representation of ELISA Assay for TPMT. Substrate BSA-6-mercaptopurine conjugate is coated onto the wells of plastic ELISA plates. In the presence of S-Adenosylmethionine (SAM), TPMT catalyses S-methylation of 6-MP to 6-methylmercaptopurine (6-MMP). Rabbit anti-6-MMP IgG binds to the covalently bound 6-MMP reaction product; and Protein A-Horseradish peroxidase (HRP) conjugate then binds to the rabbit IgG. Blue color develops in the presence of the HRP substrate, Tetramethylbenzidine. After acidification, the color changes to yellow; and the optical density at 450 nm is directly proportional to the amount of 6-MMP produced by enzyme-catalyzed TPMT methylation.
The wells of ‘Immulon B’ ELISA strips were coated with various concentrations of BSA-6MP conjugate and blocked as described above. After blocking solution was removed, the wells received 100 μl of Methylation Reaction Mix consisting of 1 mM Potassium Phosphate, 30 mM Tris-HCl, pH 8.0, lmM EDTA, 100 μM SAM and 1-4 μl of TPMT enzyme (˜6 units/μl). As a control, the wells received 100 μl of same reaction mix except no Mtase enzyme.
The wells were incubated at 37° C. for 30 minutes and were developed as described before. Absorbance was read on an Opsys MR ELISA plate reader (Dynex) at 450 nm. In this ELISA assay format, TPMT enzyme activity is detected as the amount of 6-MMP formed in situ: substrate 6-mercaptopurine is covalently bound to BSA which coats the wells of the plastic ELISA plate. Since anti-6-MMP IgG binds specifically to the methylated reaction product, 6-MMP, it is possible to measure TPMT activity using horseradish peroxidase (HRP) labeled Protein A (or HRP-conjugated goat anti-rabbit IgG). […]

human TPMT = target: T2, human TPMT (Homo sapiens, UniProt P51580); settings: Deininger et al., 1994, Table 1; cited from earlier work
T2 sequence (P51580 1-245): T1 sequence (P51580 1-245 Y240C) with C240Y

hTPMT enzyme [2] = target: T1, hTPMT enzyme; test: Temperature optimum of recombinant TPMT; format: biochemical
Protocol: Thawed cells (˜15g) were sonicated in (20 mM Tris-Cl, pH 7.5, 1 mM EDTA, 50 mM KC1, 10 mM β-mercaptoethanol) and centrifuged (8000 g for 15 minutes). The supernatant was loaded onto a Q-Sepharose column (Pharmacia, Piscataway, N.J.). […] After a storage of 2 and 5 months at −20° C., no change in TPMT enzyme activity was observed.

[3] = Storage stability of recombinant TPMT; format: physicochemical; settings: storage of 2 and 5 months at −20° C.
Protocol: The optimal reaction temperature for the hTPMT enzyme is 37° C. […] The relatively high activity of TPMT at ambient temperature facilitates immunoassays using anti-6-MMP antibody. After a storage of 2 and 5 months at −20° C., no change in TPMT enzyme activity was observed.

Molecule: BSA:6-MP: 6-MP (TPMT substrate) linked to BSA by periodate oxidation chemistry; coated onto ELISA wells
- Absorbance at 450 nm (hTPMT enzyme [1]; wells coated with BSA:6-MP 10 μg/ml): 2.228
- Absorbance at 450 nm (hTPMT enzyme [1]; wells coated with BSA:6-MP 100 μg/ml): 2.440
- Absorbance at 450 nm (hTPMT enzyme [1]; wells coated with BSA:6-MP 1 mg/ml): 2.561

Molecule: OC[C@H]1O[C@@H](n2cnc3c(S)ncnc32)[C@H](O)[C@@H]1O [6-mercaptopurine riboside]
- substrate quality for human TPMT (human TPMT): relatively good substrate

B1: hTPMT enzyme: Recombinant human thiopurine methyltransferase expressed in E.coli JM109 (pTPMT), partially purified (protein, UniProt P51580 1-245, looked up)
Thiopurine S-methyltransferase: T1 sequence (P51580 1-245 Y240C) with C240Y
modifications: recombinant, E. coli
notes: Recombinant human thiopurine methyltransferase expressed in E.coli JM109 (pTPMT), partially purified
- optimal reaction temperature (hTPMT enzyme [2]): 37 °C
- enzyme activity at 23° C. relative to the optimum (hTPMT enzyme [2]; 23° C.): nearly as active
- change in TPMT enzyme activity after storage [3]: no change
